We go through eight molecules from PMC5430804, “Structural and biochemical insights of CypA and AIF interaction” (Scientific Reports, 2017).

By Kd is commonly meant a measure of binding affinity in units of concentration.

For assay [1], the system named is AIF(Δ1-121)/CypA complex. On the set-up: method as in PMID 24434516. The settings on record: cited from earlier work.
Assay [2] concerns CypA and CypA^R55A. As to the kind of experiment: Competition of CypA/substrate complex formation (fluorescence quenching). In kind it is binding. From the text: Results are means of triplicates.
(§1) (1 picture or pasted object on this page, not shown here)

The subject of assay [3] is CypA and CypA^R55A. Nature of the assay: EnSpire label-free binding of AIF to immobilized CypA and CypA^R55A. The note with it: CypA and CypAR55A immobilized, means of triplicates. How it is done:
(§2) Direct binding assays were performed with the Corning Epic label-free technology with the EnSpire Multimode Plate Reader (PerkinElmer, Rodgau, Germany) as reported in literature.1 Briefly, […]
(§3) µg/mL streptavidin solution in 20 mM sodium acetate at pH 4.0, for 16 h at 4 °C. The microplate was subsequently washed three times with phosphate-buffered saline (PBS 1X, pH 7.4). After […]
(§4) assay buffer (PBS 1X, pH 7.4) for 2 hours followed by three washing steps in PBS 1X at pH 7.4.
(§5) After 2 h incubation, a baseline reading was recorded. Then 30 µL of peptide samples were dispensed in the plate. The final readings were taken over a period of 1 hour. Label-free responses were measured as shifts in reflected wavelength and were expressed in picometers (Fig. S4). The difference between the last baseline measurements and the maximum signal was used to determine the KD values (Table 1 in the main text). […]
biosensor by adding directly 100 µg/mL of protein in 20 mM sodium acetate pH 4.0, for 16 h at 4 °C (Fig. S5). […]
the procedure described above. Results were analyzed using the EnSpire label-free user interface software. […]
coated with CypA wild type with and without the CsA. Results were analyzed using the EnSpire label-free user interface software. […]
(B). Results were analyzed using the EnSpire label-free user interface software. […]

For assay [4], the system named is CypA/CsA complex. Nature of the assay: NMR competition with preformed CypA/CsA complex. In kind it is binding. The settings on record: AIF(370-394) gradually added to preformed CypA/CsA complex.
Assay [5] concerns neuronal cells. More on the design: method as in PMID 24434516. The note with it: cited from earlier work.
In assay [6] the test system is CypA-CsA preformed complex. Nature of the assay: ITC competition: AIF(370-394) titrated onto CypA-CsA preformed complex. The assay is classed as binding. The note with it: AIF(370-394) 5 to 500 μM titrated onto CypA-CsA complex, 25 °C. The procedure: Figure 5 ITC binding assay. […] The bottom panels show the integrated heat of each injection after correction for the heat of dilution of ligands. Curves represent the best fit to a single-site binding model. (C, D) ITC competition assays.
ITC experiments were performed at 25 °C using a MicroCal ITC200 (GE Healthcare Bio-Sciences AB, Sweden). Protein and peptide samples were dialyzed in phosphate saline buffer (PBS 1X) containing 1 mM DTT, pH 7.4. […] Data were analyzed using the “Origin” software (MicroCal). The dissociation constant (KD), molar binding stoichiometry (n) and the binding enthalpy (ΔH), entropy (ΔS) and Gibbs free energy (ΔG) were determined by fitting the binding isotherm to a one-site model with MicroCal Origin software. All ITC experiments were performed in triplicate.

Assay [7] deals with T1, CypA (Homo sapiens, UniProt P62937).
T1 construct: His tag (6His); made in house
T1 sequence (P62937 whole entry): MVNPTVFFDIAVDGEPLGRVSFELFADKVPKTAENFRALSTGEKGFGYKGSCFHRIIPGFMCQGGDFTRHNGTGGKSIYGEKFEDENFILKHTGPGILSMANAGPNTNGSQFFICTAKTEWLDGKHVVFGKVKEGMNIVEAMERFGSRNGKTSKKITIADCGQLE
The settings on record: binding to CypA; cited from earlier work. An excerpt: CSPs were quantified in terms of ΔδHNavs and classified as strong, medium and weak (see Methods section for details).

For assay [8], the target named is T1, CypA. Nature of the assay: Fluorescence quenching binding of FRET substrate. The note with it: excitation 340 nm, emission 510 nm. An excerpt:
probe clusters) and CS003 (11 probe clusters), CS004 (7 probe clusters), CS005 (4 probe clusters), CS006 (4 probe clusters) and CS007 (4 probe clusters), CS008 (3 probe clusters), CS009 (2 probe clusters). The top scoring ligand-binding site identified by FTMap on CypA is the active site, while the second, CS001 (Figure S7) is constituted by loops connecting α1-β3 (G42-C52) and a portion of the loop connecting β4-β5 (G65-S99), close to the catalytic site of CypA within the same interaction surface identified by NMR studies and mapped by trypsin MS-based foot-printing and contains 19 probe clusters. […]
Fluorescence-based assays
Fluorescence quenching assays were performed using the FRET substrate Ac-EK(Dabcyl)PPFAE(EDANS)KA-NH2 (MW 1556.2 amu) reported in literature.6 At 0.23 ng/μL (0.15 μM) the substrate provides a significant fluorescence emission at 510 nm compared to the buffers used in the assay (PBS 1X) (Figure S8A). […] Kinetic constants were determined by fitting data of fluorescence maxima at 510 nm of EDANS upon protein additions. […]
(Fig. S8B, red and blue lines, respectively) on the CypA/substrate complex formation were determined using a 10-fold excess (1.5 μM) of compounds. […]
Figure S8. Binding assay based on fluorescence quenching. (A) Fluorescence emission spectrum of CypA substrate. Samples were excited at 340 nm, and the emission in the range of 450-600 nm was measured. […]

Assay [9] concerns the target T2, AIF(370-394) (Homo sapiens, UniProt O95831).
T2 construct: host or cells: chemical synthesis (synthetic peptide)
As to the kind of experiment: EnSpire label-free direct binding to AIF(370-394). The note with it: for KD: Corning Epic/EnSpire label-free, biotinylated AIF(370-394) immobilized on streptavidin-coated biosensor, PBS 1X pH 7.4, readings over 1 hour, means of triplicates; for binding / affinity for AIF(370-394), in words: EnSpire label-free. How it is done:
Although peptide-peptide interaction insights might be prejudiced by the lack of appropriate 3D structures and require additional experimental assessment with full length proteins, they can mimic and anticipate in several cases real interactions. […] KD values determined by this approach are reported in Table 1 and the binding curves are shown in Supplementary Fig. S4.
as §2, §3, §4, §5
(§6) biosensor by adding directly 100 µg/mL of protein in 20 mM sodium acetate pH 4.0, for 16 h at 4 […]
(§7) by adding 200 µg/mL of protein in 20 mM sodium acetate pH 5.5, for 16 h at 4 °C. […]
(§8) the procedure described above. Results were analyzed using the EnSpire label-free user interface software. Plots were generated using GraphPad PrismR V-5.01 (GraphPad Software, La Jolla, CA). […]
Graphs were generated using GraphPad PrismR V-5.01 (GraphPad Software, La Jolla, CA). Results are means of triplicates.
as §1

The target in assay [10] is AIF(Δ1-121) (Homo sapiens, UniProt O95831). Nature of the assay: EnSpire label-free direct binding to AIF(Δ1-121). The settings on record: for KD: Corning Epic/EnSpire label-free, AIF(Δ1-121) immobilized on biosensor (100 µg/mL, 20 mM sodium acetate pH 4.0), PBS 1X pH 7.4, readings over 1 hour, means of triplicates. How it is done:
as §2, §3, §4, §5, §6, §7, §8
Results were analyzed using the EnSpire label-free user interface software. Graphs were generated using GraphPad PrismR V-5.01 (GraphPad Software, La Jolla, CA). Results are means of triplicates.
as §1

*: point of attachment. Dabcyl = CN(C)c1ccc(N=Nc2ccc(C(=O)*)cc2)cc1; EDANS = O=S(=O)(O)c1cccc2c(NCCN*)cccc12

AIF(Δ1-121), sequence (O95831 122-613, stated change not applied): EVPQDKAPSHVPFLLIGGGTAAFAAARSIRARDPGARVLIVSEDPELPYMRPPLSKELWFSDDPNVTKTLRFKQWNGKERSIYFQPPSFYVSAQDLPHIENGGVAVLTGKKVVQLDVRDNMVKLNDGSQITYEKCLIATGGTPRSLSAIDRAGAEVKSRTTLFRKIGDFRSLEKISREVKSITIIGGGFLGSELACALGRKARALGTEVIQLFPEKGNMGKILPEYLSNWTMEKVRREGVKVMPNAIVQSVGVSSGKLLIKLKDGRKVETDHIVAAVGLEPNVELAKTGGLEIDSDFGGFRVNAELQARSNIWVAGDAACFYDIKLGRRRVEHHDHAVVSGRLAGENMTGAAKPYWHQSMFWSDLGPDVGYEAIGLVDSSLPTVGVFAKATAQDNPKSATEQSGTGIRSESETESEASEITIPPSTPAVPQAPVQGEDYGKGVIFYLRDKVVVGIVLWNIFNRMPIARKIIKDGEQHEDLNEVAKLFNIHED
T2 sequence (O95831 370-394 limits assumed): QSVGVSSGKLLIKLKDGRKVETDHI

Regarding `CC[C@H](C)[C@H](NC(=O)[C@H](Cc1c[nH]cn1)NC(=O)[C@H](CC(=O)O)NC(=O)[C@@H](NC(=O)[C@H](CCC(=O)O)NC(=O)[C@@H](NC(=O)[C@H](CCCCN)NC(=O)[C@H](CCCNC(=N)N)NC(=O)CNC(=O)[C@H](CC(=O)O)NC(=O)[C@H](CCCCN)NC(=O)[C@H](CC(C)C)NC(=O)[C@H](CCCCN)NC(=O)[C@@H](NC(=O)[C@H](CC(C)C)NC(=O)[C@H](CC(C)C)NC(=O)[C@H](CCCCN)NC(=O)CNC(=O)[C@H](CO)NC(=O)[C@H](CO)NC(=O)[C@@H](NC(=O)CNC(=O)[C@@H](NC(=O)[C@H](CO)NC(=O)[C@H](CCC(N)=O)NC(C)=O)C(C)C)C(C)C)[C@@H](C)CC)C(C)C)[C@@H](C)O)C(N)=O` [AIF(370-394)], the “inhibition of AIF(Δ1-121)/CypA complex formation in vitro” value in assay [1] was “able to inhibit the AIF(Δ1-121)/CypA complex formation in vitro”. Further, in [2] (10-fold excess (1.5 μM) of compound, fluorescence quenching, 510 nm, triplicates), the “effect on CypA and CypA^R55A binding to substrate” value is “unable to prevent the binding of both CypA and CypA^R55A to the substrate”. Besides, the “effect on enzyme-substrate recognition” value in [2] (larger excess of AIF(370-394), not shown) was “does impair the enzyme-substrate recognition”. Moreover, the “binding to CypA versus CypA^R55A” value in assay [3] was “bound CypA and CypA^R55A in a similar way”. Further, the “AIF(370-394) interaction with CypA after CsA binding” value in assay [4] is “CsA binding to CypA did not fully abrogate the AIF(370-394) interaction with CypA”. In assay [5] (AIF(Δ1-121)/CypA-mediated glutamate-induced cell death), the neuroprotection result is recorded as “pronounced neuroprotection”. For the same molecule, the “nuclear translocation of AIF and CypA” value in assay [5] is “blocking the nuclear translocation of the two proteins”. The heat exchange entry in assay [6] is recorded as “no apparent heat exchange was observed”. The “KD, in words” value in [7] is on record as “low micromolar range”.
As to “AIF(Δ1-121): apoptogenic (pro-apoptotic) form of AIF”, in assay [3], the “binding to CypA versus CypA^R55A” value was “bound CypA and CypA^R55A in a similar way”.
With “Ac-EK(Dabcyl)PPFAE(EDANS)KA-NH2 (SMILES CC(=O)N[C@@H](CCC(=O)O)C(=O)N[C@@H](CCCCNC(=O)c1ccc(N=Nc2ccc(N(C)C)cc2)cc1)C(=O)N1CCC[C@H]1C(=O)N1CCC[C@H]1C(=O)N[C@@H](Cc1ccccc1)C(=O)N[C@@H](C)C(=O)N[C@@H](CCC(=O)NCCNc1cccc2c(S(=O)(=O)O)cccc12)C(=O)N[C@@H](CCCCN)C(=O)N[C@@H](C)C(N)=O) [CypA substrate, FRET substrate of CypA, MW 1556.2 amu]”, the “Δfluorescence emission vs buffer” value in [8] is recorded as 319 a. u.
Take CypA wild type: His-tagged CypA protein: binding in [9] (full-length protein: CypA / CypAR55A immobilized (200 µg/mL, sodium acetate pH 5.5), AIF(370-394) added at several concentrations, means of triplicates (Fig. S7A)) was characterised by a dissociation constant (Kd) of 3000 ± 600 nM.
As to “CypA(55-69)R69: CypA(55-69) with R69 replaced by alanine (RIIPGFMCQGGDFTA)”, in [9], the KD entry is given as “No binding” and the “binding / affinity for AIF(370-394), in words” value is given as “completely abrogated the binding to both the AIF forms”. In assay [10] (EnSpire label-free), the “binding / affinity for AIF(Δ1-121), in words” value is reported as “completely abrogated the binding to both the AIF forms”.
Regarding “CypA(83-90): CypA-derived synthetic peptide, residues 83-90 (FEDENFIL)”, the KD entry in assay [9] and in assay [10] was “No binding” each time.
“CypA(136-150): CypA-derived synthetic peptide, residues 136-150 (MNIVEAMERFGSRNG)”: the KD result in assay [9] and in assay [10] was “No binding” in each case. Besides, the “binding / affinity for AIF(370-394), in words” value in assay [9] is listed as “did not interact with AIF(370-394)”.
For the molecule “CypA(154-165): CypA-derived synthetic peptide, residues 154-165 (KKITIADCGQLE)”, in assay [9], the KD result was “No binding” and the “binding / affinity for AIF(370-394), in words” value was “did not interact with AIF(370-394)”. In [10], the KD result is listed as “No binding”.
